Experimental findings from paper PMC9097459 are described below.

The target of assay [1] is FlSp NT* (constitutive monomer mutant, Asp 41 and Lys 65 swapped). Briefly: SEC-MALS. As to conditions: Superdex 75 increase SEC column.
The target of assay [2] is FlSp NTTrp (Phe 11 to Trp mutant of FlSp NT) (Nephila clavipes). The assay is described as follows: SEC; Superdex 75 Increase 10/300 GL, 200 μl of 2 mg/ml protein, 20 mM MES, 154 mM NaCl, 1 mM EDTA, pH 5.5; apparent MW from calibrants; monomer to dimer.
Assay [3] has as its target WT FlSp NT (N-terminal domain of flagelliform spidroin from Nephila clavipes) (Nephila clavipes). Briefly: SEC-MALS; Superdex 75 Increase 10/300 GL, 50 μg loaded, 20 mM MES, 150 mM NaCl, 1 mM EDTA, pH 5.5, room temperature; monomer to dimer.
The target is the same in assay [4]. The assay is described as follows: SEC; Superdex 75 Increase 10/300 GL, 200 μl of 2 mg/ml protein, 20 mM MES, 154 mM NaCl, 1 mM EDTA, pH 5.5; apparent MW from calibrants; monomer to dimer.
In assay [5] the target is FlSp NT_(E79QE84QE119Q) (Nephila clavipes). The assay is described as follows: SEC-MALS; Superdex 75 Increase 10/300 GL, 50 μg loaded, 20 mM MES, 150 mM NaCl, 1 mM EDTA, pH 5.5, room temperature; monomer to dimer.
Another assay has as its target FlSp NT_(E79QE84QE119Q). Briefly: SEC-MALS. As to conditions: Superdex 75 increase SEC column.
In assay [6] the target is T1, FlSp NT_(E79QE84QE119QE130Q).
T1 chain: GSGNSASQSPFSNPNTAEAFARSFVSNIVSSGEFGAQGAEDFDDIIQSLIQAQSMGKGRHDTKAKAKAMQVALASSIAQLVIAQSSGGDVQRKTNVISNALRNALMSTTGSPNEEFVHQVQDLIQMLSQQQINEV
The assay is described as follows: SEC-MALS. As to conditions: chain shown with the change, Superdex 75 increase SEC column.

The mark [7] stands for this setting: pH 5.5 versus pH 8.0, parent: 2.0.

Consider “WT FlSp NT (N-terminal domain of flagelliform spidroin from Nephila clavipes) D41K; K65D”, for which the other: molecular mass by SEC-MALS in assay [1] (pH 5.5, parent: 26.0) turned out to be 13.4 kDa; in assay [1] (pH 8.0, parent: 13.1), 14.1 kDa. The other: MW ratio between pH 5.5 and pH 8.0 in assay [1] (setting [7]) worked out at 1.

For the molecule “FlSp NTTrp (Phe 11 to Trp mutant of FlSp NT) (domain or fragment)”, in assay [2], the apparent MW ratio between pH 5.5 and 8.0 is 1.2.

In assay [3], “WT FlSp NT (N-terminal domain of flagelliform spidroin from Nephila clavipes) (domain or fragment)” registered a stoichiometry N of 2. In addition, the apparent MW ratio between dimer (pH 5.5) and monomer (pH 8.0) in assay [4] turned out to be 1.3.

On to “FlSp NT_(E79QE84QE119Q) (domain or fragment)”, for which the MW ratio between pH 5.5 and 8.0 in assay [5] turned out to be 1.7.

For the molecule “WT FlSp NT (N-terminal domain of flagelliform spidroin from Nephila clavipes) E79Q; E84Q; E119Q”, the other: molecular mass by SEC-MALS in the assay with FlSp NT_(E79QE84QE119Q) (pH 5.5, parent: 26.0) stood at 24.4 kDa; in the assay with FlSp NT_(E79QE84QE119Q) (pH 8.0, parent: 13.1), 14.3 kDa.

B1: WT FlSp NT (N-terminal domain of flagelliform spidroin from Nephila clavipes) E79Q; E84Q; E119Q; E130Q (protein)
chain: GSGNSASQSPFSNPNTAEAFARSFVSNIVSSGEFGAQGAEDFDDIIQSLIQAQSMGKGRHDTKAKAKAMQVALASSIAQLVIAQSSGGDVQRKTNVISNALRNALMSTTGSPNEEFVHQVQDLIQMLSQQQINEV
Consider B1, for which the other: molecular mass by SEC-MALS came to 20.7 kDa in assay [6] (pH 5.5, parent: 26.0) and 13.1 kDa in assay [6] (pH 8.0, parent: 13.1). The other: MW ratio between pH 5.5 and pH 8.0 in assay [6] (setting [7]) was determined as 1.6.
